# Article PMC2887905
# Columns and labels:
# [1] = target: Recombinant HIV-1 gp120 (LAV, CXCR4 monotropic, identical to NL4-3 gp120, glycosylated) (HIV-1 (LAV; identical to NL4-3 gp120)) (UniProt P03377)
# [2] = target: gp41 (ARP671, spanning the entire extracellular domain of HIV-1 gp41MN) (HIV-1 (MN)) (UniProt P05877); test: SPR; gp41 immobilised on a biosensor; data not shown
# Chain of UniProt P05877 (P05877 32-685): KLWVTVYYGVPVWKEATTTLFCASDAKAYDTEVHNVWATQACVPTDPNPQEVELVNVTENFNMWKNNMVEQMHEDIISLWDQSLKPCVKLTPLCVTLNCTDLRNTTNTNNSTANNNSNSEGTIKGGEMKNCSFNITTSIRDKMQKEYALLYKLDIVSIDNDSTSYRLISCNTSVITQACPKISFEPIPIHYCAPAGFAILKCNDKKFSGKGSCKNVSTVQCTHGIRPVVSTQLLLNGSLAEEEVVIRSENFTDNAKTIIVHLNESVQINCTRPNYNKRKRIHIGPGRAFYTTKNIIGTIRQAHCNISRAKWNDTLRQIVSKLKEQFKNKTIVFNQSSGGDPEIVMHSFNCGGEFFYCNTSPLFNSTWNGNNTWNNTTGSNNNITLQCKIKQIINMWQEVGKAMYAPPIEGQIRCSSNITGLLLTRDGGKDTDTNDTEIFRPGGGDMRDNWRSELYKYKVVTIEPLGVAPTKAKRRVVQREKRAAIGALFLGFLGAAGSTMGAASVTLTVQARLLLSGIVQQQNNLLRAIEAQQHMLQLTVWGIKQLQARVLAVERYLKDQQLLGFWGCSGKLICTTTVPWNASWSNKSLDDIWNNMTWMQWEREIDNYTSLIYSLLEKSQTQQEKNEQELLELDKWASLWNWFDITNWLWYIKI
Substance,"neutralisation of HIV-1 NL4-3 infection, p24 antigen ELISA on day 5, dose-dependent, value at 20 μg/ml [1] [%]",response units [2] [RU],"neutralisation of HIV-1 NL4-3 infection, p24 antigen ELISA on day 5, value at 50 μg/ml [1] [%]"
HOCl-modified human serum albumin (protein:HOCl molar ratio 1:1000) (from UniProt P02768 25-609),> 95,< 5,
HOCl-modified bovine serum albumin (protein:HOCl molar ratio 1:1000) (from UniProt P02769 25-607),> 90,< 5,
HOCl-modified mouse serum albumin (protein:HOCl molar ratio 1:1000) (from UniProt P07724 25-608),,< 5,> 90
